Each block holds one binder with its values, some of them ahead of it.
Tests used:
[1] = molecular target: T1, CD36 (His-tagged recombinant human protein, Sino Biological, Life technologies, 70-80 kDa) (human, UniProt P16671 30-439); assay: SPR; recombinant 1; kd1 of two-state fit
[2] = molecular target: T1, CD36 (His-tagged recombinant human …); assay: SPR; recombinant 1; kd2 of two-state fit
[3] = molecular target: T1, CD36 (His-tagged recombinant human …); assay: SPR; recombinant 2; kd1 of two-state fit
[4] = molecular target: T1, CD36 (His-tagged recombinant human …); assay: SPR; recombinant 2; kd2 of two-state fit
[5] = molecular target: T1, CD36 (His-tagged recombinant human …); assay: SPR; kd1 of two-state fit
[6] = molecular target: T1, CD36 (His-tagged recombinant human …); assay: SPR; kd2 of two-state fit
[7] = molecular target: T1, CD36 (His-tagged recombinant human …); assay: SPR; native 1; kd1 of two-state fit
[8] = molecular target: T1, CD36 (His-tagged recombinant human …); assay: SPR; native 1; kd2 of two-state fit
[9] = molecular target: T1, CD36 (His-tagged recombinant human …); assay: SPR; native 2; kd1 of two-state fit
[10] = molecular target: T1, CD36 (His-tagged recombinant human …); assay: SPR; native 2; kd2 of two-state fit

T1 sequence (P16671 30-439): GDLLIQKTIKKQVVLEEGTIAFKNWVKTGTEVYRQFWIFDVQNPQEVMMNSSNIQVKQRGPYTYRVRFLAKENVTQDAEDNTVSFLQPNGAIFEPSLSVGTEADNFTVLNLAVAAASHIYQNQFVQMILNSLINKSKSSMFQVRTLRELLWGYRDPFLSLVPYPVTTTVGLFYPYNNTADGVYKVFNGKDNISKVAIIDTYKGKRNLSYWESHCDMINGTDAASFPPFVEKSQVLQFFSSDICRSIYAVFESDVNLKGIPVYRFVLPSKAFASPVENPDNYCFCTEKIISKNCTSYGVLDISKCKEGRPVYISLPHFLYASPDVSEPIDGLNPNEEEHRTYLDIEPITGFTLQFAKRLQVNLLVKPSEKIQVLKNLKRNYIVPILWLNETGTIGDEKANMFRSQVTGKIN

koff [1]: 0.0066 s⁻¹
koff [2]: 0.00037 s⁻¹
koff [3]: 0.019 s⁻¹
koff [4]: 0.00068 s⁻¹
B1: recombinant S100A12 (rS100A12) (natural protein)
chain: GPLGSMTKLEEHLEGIVNIFHQYSVRKGHFDTLSKGELKQLLTKELANTIKNIKDKAVIDEIFQGLDANQDEQVDFQEFISLVAIALKAAHYHTHKE

koff [5]: 0.014 s⁻¹
koff [6]: 0.001 s⁻¹
B2: fluorescein-labeled rS100A12 (natural protein)
chain: GPLGSMTKLEEHLEGIVNIFHQYSVRKGHFDTLSKGELKQLLTKELANTIKNIKDKAVIDEIFQGLDANQDEQVDFQEFISLVAIALKAAHYHTHKE
modifications: fluorescein (NHS-fluorescein, 15 times molar excess; labeled residues not stated)

koff [7]: 0.0083 s⁻¹
koff [8]: 0.00051 s⁻¹
koff [9]: 0.0092 s⁻¹
koff [10]: 0.00056 s⁻¹
B3: commercially available native human S100A12 protein (nS100A12) (natural protein)
chain: MTKLEEHLEGIVNIFHQYSVRKGHFDTLSKGELKQLLTKELANTIKNIKDKAVIDEIFQGLDANQDEQVDFQEFISLVAIALKAAHYHTHKE

From paper PMC5241339 (2016)
